According to the MegaScale stability set (Tsuboyama et al. 2023):

B1: EEHEE_rd3_0130 (parent)
chain: TKIIVNGKTFTAPTEEEAQKIAEKLAKKAGLTVHKKNGTFELK

Variants of: B1
Test: folding stability dG (cDNA display proteolysis); higher = more stable
Details: PBS, room temperature

Variant | folding stability dG [kcal/mol]
TKIIVNGKTFTAPTEEEAQKIAEKLAKKAGITVHKKNGTFELK [L31I] | -0.35
TKIIVNGKTFTAPTEEEAQKIAEKYAKKAGLTVHKKNGTFELK [L25Y] | 0.649
TKIIVNGKTFTAPTEEEAQKIAEKGAKKAGLTVHKKNGTFELK [L25G] | -0.493
TKIIVNGKTFTFPTEEEAQKIAEKLAKKAGLTVHKKNGTFELK [A12F] | 1.81
TKIIVNGKTFTYPTEEEAQKIAEKLAKKAGLTVHKKNGTFELK [A12Y] | 1.63
TKIIVNGKTFTVPTEEEAQKIAEKLAKKAGLTVHKKNGTFELK [A12V] | 1.34
TKIIVNGKTFTAPTEEECQKIAEKLAKKAGLTVHKKNGTFELK [A18C] | 0.561
TKIIVNGKTFTAPTEEENQKIAEKLAKKAGLTVHKKNGTFELK [A18N] | -0.938
TKIIVNGKTFTAPTEEERQKIAEKLAKKAGLTVHKKNGTFELK [A18R] | -0.569
TKIIVNGKTFTAPTEEEAQKIAEKLNKKAGLTVHKKNGTFELK [A26N] | -0.556
TKIIVNGKTFTAPTEEEAQKIAEKLAKKAGLTVHKKNGTCELK [F40C] | 0.982
TKIIVNGKTFTAPTEEEAQKIAEKLAKKAGLTVHKKNGTGELK [F40G] | -0.038
TKIIVNGKTFTAPTEEEAQKIAEKLAKKAGLTVHKKNGTQELK [F40Q] | 0.083
TKIIVNGKTFTAPTEEEAQKIAEKLAKKAGLTVHKKNGTNELK [F40N] | 0.021
TKIIVNGKTFTAPTEEEAQKIAEKLAKKAGLTVHKKNGTRELK [F40R] | -0.061
TKIIVNGKTFTAPTEEEAQKIAEKLAKKAGLTVHKKNGTIELK [F40I] | 0.784
TKIIVNGKTFTAPTEEEAQKIAEKLAKKAGLTVHKKNGTEELK [F40E] | 0.251
TKIIVNRKTFTAPTEEEAQKIAEKLAKKAGLTVHKKNGTFELK [G7R] | 0.021
TCIIVNGKTFTAPTEEEAQKIAEKLAKKAGLTVHKKNGTFELK [K2C] | 1.16
TEIIVNGKTFTAPTEEEAQKIAEKLAKKAGLTVHKKNGTFELK [K2E] | 0.085
TFIIVNGKTFTAPTEEEAQKIAEKLAKKAGLTVHKKNGTFELK [K2F] | 0.565
TRIIVNGKTFTAPTEEEAQKIAEKLAKKAGLTVHKKNGTFELK [K2R] | 0.793
TKIIVNGKTFTAPTEEEAQKIAEKLAKKAGLTVHKRNGTFELK [K36R] | 0.78
TKIIVNGKTFTAPTEEEAQKIAEKLAKKAGLTVHKFNGTFELK [K36F] | 0.986

Variant | folding stability dG [kcal/mol]
TKIIVNGKTFTAPTEEEAQKIAEKLAKKAGLTVHKYNGTFELK [K36Y] | 1.12
TKIIVNGKTFTAPTEEEAQKIAEKLAKKAGLTVHKINGTFELK [K36I] | 1.56
TKIIVNGKTFTAPTEEEAQKIAEKLAKKAGLTVHKCNGTFELK [K36C] | 0.875
TKIIVNGKTFTAPTEEEAQKIAEKLAKKAGLTVHKENGTFELK [K36E] | 0.75
TKIIVNGKTFTAPTEEEAEKIAEKLAKKAGLTVHKKNGTFELK [Q19E] | 0.914
TKIIVNGKTFTAPTEEEAQKIAEKLATKAGLTVHKKNGTFELK [K27T] | 0.52
TKIIVNGKTFTAPTEEEAQKIAEKLAKKAGLPVHKKNGTFELK [T32P] | -0.446
TKIIVNGKTFTAPTEEEAQKIAEKLAKKAGLSVHKKNGTFELK [T32S] | 0.621
TKIIVNGKTFTAPTEEEAQKIAEKLAKKAGLKVHKKNGTFELK [T32K] | 0.69
TKIIVNGKTFTAPTEEEAQKIAEKLAKKAGLRVHKKNGTFELK [T32R] | 0.561
TKIIVNGKTFTAPMEEEAQKIAEKLAKKAGLTVHKKNGTFELK [T14M] | -0.226
TKIIVNGKTFTAPAEEEAQKIAEKLAKKAGLTVHKKNGTFELK [T14A] | -0.233
TKIIVNGKTFTAPTEEEAQIIAEKLAKKAGLTVHKKNGTFELK [K20I] | 0.836
TKIIVNGKTFTAPTEEEAQYIAEKLAKKAGLTVHKKNGTFELK [K20Y] | 0.745
TKIIVNGKTFTAPTEEEAQNIAEKLAKKAGLTVHKKNGTFELK [K20N] | 0.548
TKIIVNGKTFTAPTEEEAQGIAEKLAKKAGLTVHKKNGTFELK [K20G] | 0.122
TKIIVNGKTFTAPTEEEAQKIAEKLAKKAALTVHKKNGTFELK [G30A] | -0.039
TKIIVNGKTFTAPTEEEAQKIAEKLAKKAGLTVHHKNGTFELK [K35H] | 0.653
TKIIVNGKTFTAPTEEEAQKIAEKLAKKAGLTVHMKNGTFELK [K35M] | 0.631
TKIIVNGKTFTAPTEEEAQKIAEKLAKKAGLTVHLKNGTFELK [K35L] | 0.661
TKIIVNGKTFTAPTEEEAQKIAEKLAKKAGLTVHDKNGTFELK [K35D] | -0.099
TKIIVNGKTFTAPTEEEAQKIAEKLAKKAGLTVHAKNGTFELK [K35A] | 0.318
TKIIVNGKTFTAPTEEEAQKIAEKLAKKAGLTVHGKNGTFELK [K35G] | 0.063
TKRIVNGKTFTAPTEEEAQKIAEKLAKKAGLTVHKKNGTFELK [I3R] | -0.394

Variant | folding stability dG [kcal/mol]
TKSIVNGKTFTAPTEEEAQKIAEKLAKKAGLTVHKKNGTFELK [I3S] | -0.742
TKIIVNGKTFTAPTEEEAQKIAEKLAKKAGLTVHKKNGTFKLK [E41K] | -0.978
TKIIVNGKTFTAPTEEEAQKIAEKLAKKAGLTVHKKNGTFYLK [E41Y] | 1.85
TKIIVNGKTFTAPTEEEAQKIAEKLAKKAGLTVHKKNGTFQLK [E41Q] | 0.186
TKIIVNGKTFTAPTEEEAQKIAEKLAKKAGLTVHKKNGTFILK [E41I] | 1.48
TKIIVNGKTFEAPTEEEAQKIAEKLAKKAGLTVHKKNGTFELK [T11E] | 0.261
TKIIVNGKTFLAPTEEEAQKIAEKLAKKAGLTVHKKNGTFELK [T11L] | 0.81
TKIIVNGKTFTAPTEEEAQKIATKLAKKAGLTVHKKNGTFELK [E23T] | 0.669
TKIIVNGKTFTAPTEEEAQKIAMKLAKKAGLTVHKKNGTFELK [E23M] | 1.04
TKIIVNGKTFTAPTEEEAQKIAEKLAKKAGLTVAKKNGTFELK [H34A] | 0.451
TKIIVNGKTFTAPTEEEAQKIAEKLAKKAGLTVRKKNGTFELK [H34R] | 0.72
TKIIVNGKTFTAPTEEEAQKIAEKLAKKAGLTVMKKNGTFELK [H34M] | 0.601
TKIIVNGKTFTAPTEEEAQKIAEKLAKKAGLTVQKKNGTFELK [H34Q] | 0.444
TKIIVNGKTFTAPTEEEAQKIAEKLAKKAGLTVHKKNGQFELK [T39Q] | 1.29
TKIIVNGKTFTAPTEEEAQKIAEKLAKKAGLTVHKKNGPFELK [T39P] | 0.066
TKIIVNGKTFTAPTEEEAQKIAEKLAKKAGLTVHKKNGMFELK [T39M] | 1.14
TKIIVNGKTFTAPTEEEAQKIAEKLAKKAGLTVHKKNGHFELK [T39H] | 1.33
TKIIVNGKTFTAPTEEEAQKIAEKLAKKAGLTVHKKNGNFELK [T39N] | 1.12
TKIIVLGKTFTAPTEEEAQKIAEKLAKKAGLTVHKKNGTFELK [N6L] | 0.861
TKIIVYGKTFTAPTEEEAQKIAEKLAKKAGLTVHKKNGTFELK [N6Y] | 1.42
TKIQVNGKTFTAPTEEEAQKIAEKLAKKAGLTVHKKNGTFELK [I4Q] | 0.068
TKIRVNGKTFTAPTEEEAQKIAEKLAKKAGLTVHKKNGTFELK [I4R] | 0.615
TKIHVNGKTFTAPTEEEAQKIAEKLAKKAGLTVHKKNGTFELK [I4H] | 0.173
TKIIVNGKTFTAPTEEEAQKIAEKLAKKAGLTVHKKNGTFELS [K43S] | 0.91

Variant | folding stability dG [kcal/mol]
TKIIVNGKTFTAPTEEEAQKIAEKLAKRAGLTVHKKNGTFELK [K28R] | 1.14
TKIIVNGKTFTAPTEEEAQKIAEKLAKDAGLTVHKKNGTFELK [K28D] | 0.738
TKIIVNGKTFTAPTEEEAQKIAEKLAKSAGLTVHKKNGTFELK [K28S] | 0.779
TKIIVNGKTFTAPTEEEAQKIAEKLAKYAGLTVHKKNGTFELK [K28Y] | 1.06
TKIIVNGKTFTAPTEEEAQKIAEKLAKEAGLTVHKKNGTFELK [K28E] | 0.862
TKIIVNGKTFTAYTEEEAQKIAEKLAKKAGLTVHKKNGTFELK [P13Y] | 0.302
TKIIVNGKTFTAFTEEEAQKIAEKLAKKAGLTVHKKNGTFELK [P13F] | 0.391
TKIIVNGKTFTAITEEEAQKIAEKLAKKAGLTVHKKNGTFELK [P13I] | 0.41
TKIIVNGKTFTAMTEEEAQKIAEKLAKKAGLTVHKKNGTFELK [P13M] | 0.526
TKIIVNGKTFTALTEEEAQKIAEKLAKKAGLTVHKKNGTFELK [P13L] | 0.492
TKIIVNGKTFTADTEEEAQKIAEKLAKKAGLTVHKKNGTFELK [P13D] | 0.664
TKIIVNGKTFTAPTEPEAQKIAEKLAKKAGLTVHKKNGTFELK [E16P] | 0.061
TKIIVNGKTFTAPTEAEAQKIAEKLAKKAGLTVHKKNGTFELK [E16A] | 0.911
TKIIVNGKTFTAPTECEAQKIAEKLAKKAGLTVHKKNGTFELK [E16C] | 0.888
TKIIVNGKTFTAPTEWEAQKIAEKLAKKAGLTVHKKNGTFELK [E16W] | 0.933
TKIIVNGKTFTAPTEEEAQKIAEKLAKKAGLTVHKKDGTFELK [N37D] | 0.873
TKIIVNGKTFTAPTEEEAQKIAEKLAKKAGLTVHKKAGTFELK [N37A] | 0.339
TKIIVNGKTFTAPTEEEAQKIAEKLAKKAGLTVHKKMGTFELK [N37M] | 0.06
TKIINNGKTFTAPTEEEAQKIAEKLAKKAGLTVHKKNGTFELK [V5N] | -0.497
TKIIYNGKTFTAPTEEEAQKIAEKLAKKAGLTVHKKNGTFELK [V5Y] | 1.4
TKIITNGKTFTAPTEEEAQKIAEKLAKKAGLTVHKKNGTFELK [V5T] | -0.197
TKIIVNGKHFTAPTEEEAQKIAEKLAKKAGLTVHKKNGTFELK [T9H] | 0.114
TKIIVNGKVFTAPTEEEAQKIAEKLAKKAGLTVHKKNGTFELK [T9V] | 1.12
TKIIVNGKSFTAPTEEEAQKIAEKLAKKAGLTVHKKNGTFELK [T9S] | 0.461

Variant | folding stability dG [kcal/mol]
TKIIVNGKIFTAPTEEEAQKIAEKLAKKAGLTVHKKNGTFELK [T9I] | 1.01
TKIIVNGKTFTAPTEEEAQKIAEKLAKKAGLTQHKKNGTFELK [V33Q] | -0.574
TKIIVNGKTFTAPTEEEAQKIAEKLAKKAGLTCHKKNGTFELK [V33C] | 1.13
TKIIVNGKTFTAPTEEEAQKIAEKLAKKAGLTDHKKNGTFELK [V33D] | -0.376
TKIIVNGKTFTAPTEELAQKIAEKLAKKAGLTVHKKNGTFELK [E17L] | 1.25
TKIIVNGKTFTAPTEEEAQKIAETLAKKAGLTVHKKNGTFELK [K24T] | 0.939
TKIIVNGKTFTAPTEEEAQKIAEFLAKKAGLTVHKKNGTFELK [K24F] | 1.47
TKIIVNGKTFTAPTEEEAQKIAEGLAKKAGLTVHKKNGTFELK [K24G] | 0.617
TKIIVNGKTFTAPTEEEAQKIAEALAKKAGLTVHKKNGTFELK [K24A] | 1.06
TKIIVNGQTFTAPTEEEAQKIAEKLAKKAGLTVHKKNGTFELK [K8Q] | 0.67
TKIIVNGRTFTAPTEEEAQKIAEKLAKKAGLTVHKKNGTFELK [K8R] | 0.999
TKIIVNGSTFTAPTEEEAQKIAEKLAKKAGLTVHKKNGTFELK [K8S] | 0.223
TKIIVNGATFTAPTEEEAQKIAEKLAKKAGLTVHKKNGTFELK [K8A] | 0.511
TKIIVNGNTFTAPTEEEAQKIAEKLAKKAGLTVHKKNGTFELK [K8N] | 0.238
TKIIVNGVTFTAPTEEEAQKIAEKLAKKAGLTVHKKNGTFELK [K8V] | 0.864
TKIIVNGHTFTAPTEEEAQKIAEKLAKKAGLTVHKKNGTFELK [K8H] | 0.948
TKIIVNGKTFTAPTEEEAQKIAEKLAKKIGLTVHKKNGTFELK [A29I] | 0.979
TKIIVNGKTFTAPTEEEAQKIAEKLAKKNGLTVHKKNGTFELK [A29N] | 1.17
TKIIVNGKTFTAPTEEEAQKIAEKLAKKKGLTVHKKNGTFELK [A29K] | 0.837
TKIIVNGKTFTAPTEEEAQKIIEKLAKKAGLTVHKKNGTFELK [A22I] | 0.601
TKIIVNGKTFTAPTEEEAQKIMEKLAKKAGLTVHKKNGTFELK [A22M] | 0.143
TKIIVNGKTFTAPTEEEAQKYAEKLAKKAGLTVHKKNGTFELK [I21Y] | 0.645
